Our source for the EC50 values is US20230051715A1 (MABWELL THERAPEUTICS, published 2023).

Substitutions are numbered along the chain they refer to. Names may count otherwise.

T1: human C1s mutant M16 (R368H) (human, UniProt P09871 16-688)
T1 construct: The entry is the mutant itself
T1 sequence: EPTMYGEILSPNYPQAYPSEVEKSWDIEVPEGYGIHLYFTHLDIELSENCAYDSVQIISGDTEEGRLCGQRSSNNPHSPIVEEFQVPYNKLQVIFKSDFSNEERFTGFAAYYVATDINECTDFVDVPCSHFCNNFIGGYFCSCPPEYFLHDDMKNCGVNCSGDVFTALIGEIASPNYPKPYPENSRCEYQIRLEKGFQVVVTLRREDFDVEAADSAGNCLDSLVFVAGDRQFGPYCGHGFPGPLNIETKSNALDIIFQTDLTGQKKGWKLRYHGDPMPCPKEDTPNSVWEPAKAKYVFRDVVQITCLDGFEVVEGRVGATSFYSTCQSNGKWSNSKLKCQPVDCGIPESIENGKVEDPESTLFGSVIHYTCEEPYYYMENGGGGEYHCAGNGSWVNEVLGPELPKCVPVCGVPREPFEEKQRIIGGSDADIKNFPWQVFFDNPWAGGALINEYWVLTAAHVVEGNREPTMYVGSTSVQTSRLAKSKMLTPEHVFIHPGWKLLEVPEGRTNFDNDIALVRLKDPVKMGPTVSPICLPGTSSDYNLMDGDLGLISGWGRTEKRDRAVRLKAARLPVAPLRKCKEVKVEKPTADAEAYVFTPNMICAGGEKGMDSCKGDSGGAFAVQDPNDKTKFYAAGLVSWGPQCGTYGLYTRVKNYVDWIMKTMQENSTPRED

T2: human C1s mutant M8 (E351A) (human, UniProt P09871 16-688)
T2 construct: The entry is the mutant itself
T2 sequence: T1 sequence with E351A, H368R

B1: Anti-C1s antibody hz2-7(H1L2) (antibody, V domains shown)
VH: EVQLLESGGGLVQPGGSLRLSCAASGFTFSNYFMNWVRQAPGKGLEWVSEIRLKFTNYATHYADSVKGRFTISRDDSKSTLYLQMNSLRAEDTAVYYCTRDYGSRNGYFDYWGQGTLVTVSS
VL: DIVMTQTPLSLPVTPGEPASISCRSSKSLLHSNGNTFLYWFLQKPGQSPQLLIYRMSNLASGVPDRFSGSGSGTDFTLKISRVEAEDVGVYYCMQHLEYPYTFGGGTKLEIKR
notes: Humanized, human IgG1 / kappa; also called hz2-7(1L2)
B2: Anti-C1s antibody hz2-8 (H1L2 G80A) (antibody, V domains shown)
VH: QVQLVQSGAEVKKPGASVKVSCKASGFNIKEYYMHWVRQAPEQGLEWMGWIDPENADTIYAQKFQGRVTITADTSTNTAYMELSSLRSEDTAVYYCARSRLFFAYWGQGTLVTVSS
VL: DIQMTQSPKSLSASVGDRVTITCRASQDVRTALDWYQQKPGQSPKLLIYSASYRYSGVPSRFSGSGSGTDFTLTISSLQPEDFATYYCQQQYTTPYTFGQGTKLEIKR
notes: Humanized variant with G80A in HC CDR2 (already in the entry), human IgG1 / kappa
B3: Anti-C1s antibody hz2-8 (H1L2 G80A/T82A) (antibody, V domains shown)
VH: B2 VH with T58A
VL: B2 VL
notes: Humanized variant with G80A and T82A in HC CDR2 (already in the entry), human IgG1 / kappa

The target of the first assay is T1, human C1s mutant M16 (R368H). The assay can be described thus: ELISA, plate coated with human C1s mutant M16: R368H, OD450nm. The protocol:
(§1) ELISA was carried out by first coating 96-well plates with 200 ng/well of full-length or truncated C1s proteins overnight. The next morning, plates were blocked with SuperBlock T20 blocking buffer (Thermo Scientific 37536) for 1 h with gentle shaking. Then, various concentrations of anti-C1s antibodies diluted in SuperBlock T20 blocking buffer were added to the plates and incubated for 1 h with gentle shaking. Mouse IgG (Sigma-Aldrich 15381) and human IgG1 (BioXCell BP0297) were used as negative controls. The plates were washed before incubating with HRP conjugated secondary antibodies diluted in SuperBlock T20 blocking buffer (goat anti-mouse IgG (H+L) cross-adsorbed secondary antibody HRP (Invitrogen G-21040) or goat anti-human IgG antibody, HRP conjugate (Millipore AP309P)) for 1 h with gentle shaking. At last, the plates were washed and color developed with ELISA liquid HRP substrate (Sigma-Aldrich), followed by stopping the reaction with addition of 1M H₂SO₄ in the same volume as the ELISA liquid substrate. Bound antibody was measured by absorbance at OD₄₅₀ₙₘ.
(§2) Binding of anti-C1s antibodies to mutants M1-M20 of human C1s was measured by ELISA as described in Example 4, and results are shown in FIGS. 6B-6U. All anti-C1s humanized variants including hz2-7(H1L2), hz2-8(H1L2 G80A) and hz2-8(H1L2 G80A/T82A) maintained strong binding properties to the majority (16 out of 20) of C1s mutants including M1 (FIG. 6B), M2 (FIG. 6C), M3 (FIG. 6D). M4 (FIG. 6E), M7 (FIG. 6H), M8 (FIG. 6I), M10 (FIG. 6K), M11 (FIG. 6L), M12 (FIG. 6M), M13 (FIG. 6N), M15 (FIG. 6P), M16 (FIG. 6Q), M17 (FIG. 6R), M18 (FIG. 6S), M19 (FIG. 6T) and M20 (FIG. 6U).
Background: In an ELISA, binding on a coated surface is turned into a signal by an enzyme label.
Take B1: the half-maximal effective concentration (EC50) – broadly, the concentration that produces a half-maximal response – worked out at 6 ng/mL.
On to B2, for which the EC50 turned out to be 6 ng/mL.
Molecule B3 returned an EC50 of 9 ng/mL.

The target in another assay is T2, human C1s mutant M8 (E351A). The assay can be described thus: ELISA, plate coated with human C1s mutant M8: E351A, OD450nm. The protocol: as §1, §2
In turn, B1 registered an EC50 of 16 ng/mL.
The molecule B2 gave an EC50 of 10 ng/mL. This EC50 is about 1.6-fold lower than that of the molecule before.
Molecule B3 had an EC50 of 11 ng/mL.
